Data on 1 molecule can be found in paper PMC11164701.

The target of this assay is CpxA^QTY (water-soluble QTY-code variant of the sensor histidine kinase CpxA), his-tagged (E. coli) (UniProt P0AE82).

B1: periplasmic protein CpxP (natural protein)
chain: AEVGSGDNWHPGEELTQRSTQSHMFDGISLTEHQRQQMRDLMQQARHEQPPVNVSELETMHRLVTAENFDENAVRAQAEKMANEQIARQVEMAKVRNQMYRLLTPEQQAVLNEKHQQRMEQLRDVTQWQKSSSLKLLSSSNSRSQ
Turning to B1, the inhibition of the autokinase activity of CpxA^QTY (1 μM, 1 mM ATP, RT, 2 min, anti-pHis western blot) by different concentrations of CpxP; CpxP excess needed for inhibition by approximately half (fold (CpxP over kinase)) was 10.
